From US9487561B2, “Biologically active complex and its preparation” (HAMLET PHARMA AB, priority 2010, dated 2016)

B1: HAMLET (protein, UniProt P00709 20-142, looked up)
Alpha-lactalbumin: KQFTKCELSQLLKDIDGYGGIALPELICTMFHTSGYDTQAIVENNESTEYGLFQISNKLWCKSSQVPQSRNICDISCDKFLDDDITDDIMCAKKILDIKGIDYWLAHKALCTEKLEQWLCEKL
modifications: oleic acid complex

Tests used:
Jurkat cells = test: sodium influx, CoroNa Green Sodium indicator; type: cell-based; conditions: 10-minute measurement period
Protocol: Sodium influx in Jurkat cells was measured by using CoroNa Green Sodium indicator. The fluorescence was quantified every 20-second interval for a 10-minute total measurement period.

[1] = test system: lung carcinoma, kidney carcinoma and lymphoma cells; test: HAMLET-induced change in cell morphology (light microscopy, real-time imaging); type: cell-based; conditions: light microscopy
Protocol: (§1) Cells were detached from cell culture flasks with versen (0.2 g EDTA in 200 ml H2O and 800 ml PBS), washed with PBS and resuspended in serum-free RPMI-1640. HAMLET dissolved in PBS was incubated with cells (0.5×10^6/ml for A549, A498 and HeLa cells; 1×10^6/ml for Jurkat) at 37° C. FCS was added after 1 hour. Cell death was quantified by trypan blue exclusion (Chroma Gesellschaft Schmid & Co) or by measuring ATP levels (ATPlite Kit, PerkinElmer, Infinite 200, Tecan). Light images were captured using the HOLOMONITOR™ M2 digital holographic microscope (Phase Holographic Imaging AB, Lund, Sweden).
(§2) For live cell imaging, cells were pre-treated with SB202190 for 30 minutes, nuclei were stained with Hoechst 33342 (Invitrogen) and Alexa-Fluor 568-labeled HAMLET (10% labeled HAMLET, Molecular Probes) was added in serum-free medium. FCS was added after 1 hour. Fluorescence was detected with pinhole settings corresponding to 1 airy unit. The cells were kept at 37° C., 5% CO2 and examined unfixed by LSM510 DUO confocal microscopy (Carl Zeiss).
To examine if the HAMLET-induced change in carcinoma cell morphology was modified by the channel inhibitors, lung carcinoma, kidney carcinoma and lymphoma cells were exposed to HAMLET in the presence or absence of ion channel inhibitors and examined by light microscopy (FIG. 2C).
To determine if p38 signaling was involved in cell death, we inhibited p38α and p38β in lung and kidney carcinoma and Jurkat lymphoma cells with two small-molecule p38 inhibitors: SB202190, a highly specific pyridinyl-imidazole inhibitor; and BIRB796, a diaryl urea compound, which bears little structural similarity to SB202190 (Fabian et al., 2005, Nature Biotechnology 23: 329-336), ([…] and FIG. 12B). […] The effect of p38 inhibition on cell death was also observed by real-time confocal imaging of lung carcinoma cells exposed to fluorescently labeled HAMLET.

(HeLa cells) = test: cell death assay with ion channel inhibitors; type: cell-based; conditions: HAMLET 21-35 μM, three hours
Protocol: as §1
For studies with inhibitors, cells were pretreated for 30 minutes. Inhibitors used were Gadolinium chloride (GdCl3, 100 μM), Barium chloride (BaCl2, 1 mM), Ruthenium red (30 μM), tetrandrine (10 μM) and amiloride (1 mM), all from Sigma Aldrich. For p38 inhibition, SB202190 (20 μM, Sigma Aldrich) or BIRB796 (10 μM, Axon Medchem) dissolved in DMSO was used. The wells were washed twice with PBS and new medium with inhibitor was added. For RNA interference, FlexiTube siRNA Premixes against MAPK11 (SI00606053), MAPK14 (SI00300769) and All Star Negative Control siRNA (SI03650318) from Qiagen was used. A549 forward was transfected using 25 nM final siRNA concentration in 24-well plate. […]

[2] = test system: lymphoma cells (Jurkat cells); test: cell death assay with inhibitors; type: cell-based; conditions: HAMLET 21-35 μM, three hours
Protocol: GAPDH was used as a loading control.
as §1
For studies with inhibitors, cells were pretreated for 30 minutes. Inhibitors used were Gadolinium chloride (GdCl3, 100 μM), Barium chloride (BaCl2, 1 mM), Ruthenium red (30 μM), tetrandrine (10 μM) and amiloride (1 mM), all from Sigma Aldrich. For p38 inhibition, SB202190 (20 μM, Sigma Aldrich) or BIRB796 (10 μM, Axon Medchem) dissolved in DMSO was used. The wells were washed twice with PBS and new medium with inhibitor was added. For RNA interference, FlexiTube siRNA Premixes against MAPK11 (SI00606053), MAPK14 (SI00300769) and All Star Negative Control siRNA (SI03650318) from Qiagen was used. A549 forward was transfected using 25 nM final siRNA concentration in 24-well plate. After 48 hours, knockdown was examined by Western blot (anti-p38, 1:1000, Cell Signaling) and RT-PCR (MAPK14, QT00079345, QIAGEN).
To examine if functional ion channels are important for the tumoricidal activity of HAMLET, A549 lung carcinoma cells in suspension were pretreated with the channel inhibitors for 30 minutes and exposed to increasing concentrations of HAMLET for three hours.

tumor cells [3] = test: internalization of Alexa-fluor labeled HAMLET (confocal microscopy); type: cell-based; conditions: HAMLET 35 μM, 1 hour
Protocol: FIG. 2. Ion channel inhibitors rescue carcinoma cells from death and block HAMLET uptake and morphologic change. (A) Viability of lung carcinoma cells after exposure to HAMLET (21 or 35 μM, 3 h), quantified by trypan blue exclusion. […] (B) BaCl2 and amiloride prevented carcinoma cells from changing their morphology in response to HAMLET (Mean of two images in one experiment+SEMs). (C) Internalization of Alexa-fluor labeled HAMLET by tumor cells (35 μM, 1 hour), visualized by confocal microscopy. […] GAPDH was the loading control. (E) The transcriptomic response to HAMLET requires functional ion channels.
as §2

tumor cells [4] = test: Tumoricidal Activity of Oleate-HAMLET (cell death method of Example 1); type: cell-based; conditions: 0.5 mg/ml
[5] = test system: human lung carcinoma (A549) cells; test: extended microarray analysis (Illumina HumanHT-12); type: cell-based
Protocol: (§3) For the extended microarray analysis, gene expression was assessed by whole genome Illumina microarrays (HumanHT-12 Expression BeadChip). Data was normalized using cross-correlation (Chua et al., 2006 Nucleic Acids Research 34: e38). Genes with a log 2 fold change ≧1.2 in tumor cells and ≧2.0 in healthy, differentiated cells at any time point were regarded as differentially expressed (Benjamini-Hochberg adjusted p-value <0.05).
(§4) To identify the pathways that execute tumor cell death downstream of the ion channels, we further examined the global transcriptional responses to HAMLET in human lung carcinoma (A549) and kidney carcinoma (A498) cells over an extended period of 15 min to 24 hours. The p38 MAPK signaling pathway was identified as a top-scoring canonical pathway in A549 cells (FIG. 4A).

[6] = test system: kidney carcinoma (A498) cells; test: extended microarray analysis (Illumina HumanHT-12); type: cell-based, human
Protocol: as §3, §4
To examine the molecular basis of the difference in HAMLET susceptibility between carcinoma cells and healthy, differentiated cells, transcriptional profiles were compared. […] These cytokines were not secreted by the carcinoma cells.

[7] = test system: Human renal tubular epithelial cells (HRTEC); test: Ca^2+ and K^+ levels in healthy, differentiated cells in primary culture; type: cell-based; conditions: HAMLET 35 μM
Protocol: Human renal tubular epithelial cells (HRTEC) were preincubated with Fluo-4 as described, exposed to HAMLET (35 μM) and examined by real time confocal microscopy.
To further characterize ion channel activation by HAMLET, carcinoma cells were pretreated with defined channel blockers. Amiloride is a sodium channel inhibitor with effects on mechanosensitive channels, barium chloride (BaCl2) is a general K^+ channel inhibitor, gadolinium chloride (GdCl3) inhibits mechanosensitive channels, Ruthenium red is a general Ca^2+ inhibitor and tetrandrine inhibits large conductance, Ca^2+ activated K^+ channels. The carcinoma cells were preincubated with Fluo-4 as described above, pretreated with each of the channel inhibitors for 30 minutes, exposed to HAMLET (35 μM) and examined by real time confocal imaging. Furthermore, cells treated with EGTA were compared to cells with intact extracellular Ca^2+ levels, to distinguish the early peak from the subsequent influx of Ca^2+ (FIG. 1B, Table in FIG. 8).

skin papillomas = conditions: topical administration, placebo controlled; cited from earlier work

| Molecule | sodium influx (fluorescence signal) (Jurkat cells) | effect of ion channel inhibitor on HAMLET-induced change in cell morphology [1] | rescue from HAMLET-induced cell death ((HeLa cells)) | rescue from HAMLET-induced cell death [2] | effect of inhibitor on internalization of HAMLET (tumor cells [3]) | further results |
| --- | --- | --- | --- | --- | --- | --- |
| CCCCCCCC/C=C\CCCCCCCC(=O)[O-].[Na+] [oleate, sodium oleate] | did not trigger a sodium flux | – | – | – | – | – |
| NC(N)=NC(=O)c1nc(Cl)c(N)nc1N [amiloride, 3,5-diamino-6-chloro-N-(diaminomethylene)pyrazine-2-carboxamide] | – | maintained their normal morphology | rescue effect | rescue effect | inhibited internalization | – |
| [Ba+2].[Cl-].[Cl-] [BaCl2, barium chloride] | – | maintained their normal morphology | rescue effect | rescue effect | inhibited internalization | – |
| B1 | immediate increase of fluorescence signal | – | – | – | – | Trypan blue (tumor cells [4]; Control 88): 8; ATP Activity (tumor cells [4]; Control 100): 21%; DUSP1 upregulation [5]: 1.34 log 2-fold change; DUSP10 upregulation [5]: 1.98 log 2-fold change; number of genes with minimum log 2-fold change of 1.2 compared to PBS-treated control cells ([5]; adjusted p-value <0.05): Three hundred sixty-seven; number of genes responding to HAMLET [6]: 4424 genes; Ca^2+ response in HRTECs [7]: weak and transient Ca^2+ response; duration of Ca^2+ response in HRTECs [7]: about 90 seconds; effect on skin papillomas (skin papillomas): removed or reduced the size of skin papillomas |
